Data: paper PMC2120123
pKd: −log10 of the molar value.

Tests used:
Assay in all cases: radioligand binding
[1] = biological target: CD44(GP85)Δ320, purified from transfected COS cells (mouse)
[2] = biological target: CD44(GP85)Δ355, purified from transfected COS cells (mouse)
[3] = biological target: CD45Δ826/CD44(Reg.I) fusion protein (mouse) (UniProt P06800)

- pKd [1]: 8.59
- pKd [2]: 9.00
- Ankyrin binding (cpm) [3]: 1160 cpm
Substance: Erythrocyte ankyrin (from UniProt P16157 1-1881) (natural protein)
